In publication PMC2978286 (Journal of cardiovascular pharmacology, 2010):

Target: β2AR-YFP (UniProt P07550 1-413)
Experiment: FRET or BRET

B1: CXCR4-RLuc (receptor, UniProt P61073 1-352, looked up)
chain: MEGISIYTSDNYTEEMGSGDYDSMKEPCFREENANFNKIFLPTIYSIIFLTGIVGNGLVILVMGYQKKLRSMTDKYRLHLSVADLLFVITLPFWAVDAVANWYFGNFLCKAVHVIYTVNLYSSVLILAFISLDRYLAIVHATNSQRPRKLLAEKVVYVGVWIPALLLTIPDFIFANVSEADDRYICDRFYPNDLWVVVFQFQHIMVGLILPGIVILSCYCIIISKLSHSKGHQKRKALKTTVILILAFFACWLPYYIGISIDSFILLEIIKQGCEFENTVHKWISITEALAFFHCCLNPILYAFLGAKFKTSAQHALTSVSRGSSLKILSKGKRGGHSSVSTESESSSFHSS
  BRET ratio (basal): 0.23
  BRET ratio (with ISO and SDF-1): 0.42
